{"source": "patent US20220002423A1", "about": "(GENERAL HOSPITAL, published 2022)", "binders": {"B1": {"name": "agonistic TNFR2 antibody TNFRAG1 (antibody, V domains shown)", "VH": "EVQLQQFGAELVKPGASVKISCKASGYTFTDYNIDWVKQSHGKSLEWIGDINPNYDSTSYSQKFRGKATLTVDKSSSTAYMELRSLTSEDTAVYYCARGNSWYFDVWGAGTTVTVSS", "VL": "QIVLTQSPALMSASPGEKVTMTCSASSSVRYMYWYQQKPRSSPKPWIYLTSNLASGVPARFSGSGSGTSYSLTISSMEAEDAATYYCQQWSSNPLTFGAGTKLELK", "notes": "the primary antibodies were detected with secondary antibodies against rodent IgG; also called monoclonal TNFR2 antibody TNFRAG1; TNFR2 agonist antibody"}}, "key": {"[1]": {"biological_target": "T1, Amino acid residues 170-189 of human TNFR2 (human)", "T1 peptide": "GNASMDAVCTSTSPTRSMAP", "assay": "ELISA, antibody alone"}, "[2]": {"biological_target": "T2, Amino acid residues 74-93 of human TNFR2 (human)", "T2 peptide": "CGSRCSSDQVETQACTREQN", "assay": "ELISA, antibody alone"}, "[3]": {"biological_target": "T3, Amino acid residues 17-36 of human TNFR2 (human)", "T3 peptide": "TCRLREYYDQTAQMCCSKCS", "assay": "ELISA, antibody alone"}, "[4]": {"biological_target": "T4, Amino acid residues 58-77 of human TNFR2 (human)", "T4 peptide": "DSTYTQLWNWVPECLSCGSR", "assay": "ELISA, antibody alone"}, "[5]": {"biological_target": "T5, Amino acid residues 82-101 of human TNFR2 (human)", "T5 peptide": "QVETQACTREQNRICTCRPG", "assay": "ELISA, antibody alone"}, "[6]": {"biological_target": "T6, Amino acid residues 90-109 of human TNFR2 (human)", "T6 peptide": "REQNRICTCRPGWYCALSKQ", "assay": "ELISA, antibody alone"}, "[7]": {"biological_target": "T7, Amino acid residues 66-85 of human TNFR2 (human)", "T7 peptide": "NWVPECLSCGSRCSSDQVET", "assay": "ELISA, antibody alone"}, "[8]": {"biological_target": "T8, Amino acid residues 9-28 of human TNFR2 (human)", "T8 peptide": "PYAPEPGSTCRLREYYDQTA", "assay": "ELISA, antibody alone"}, "[9]": {"biological_target": "T9, TNFR2, hTNFR2 (23-207), 20kD (human, UniProt P20333)", "T9 construct": "fragment 23-207, 20kD (so in the source)", "T9 sequence (receptor fragment, looked up)": "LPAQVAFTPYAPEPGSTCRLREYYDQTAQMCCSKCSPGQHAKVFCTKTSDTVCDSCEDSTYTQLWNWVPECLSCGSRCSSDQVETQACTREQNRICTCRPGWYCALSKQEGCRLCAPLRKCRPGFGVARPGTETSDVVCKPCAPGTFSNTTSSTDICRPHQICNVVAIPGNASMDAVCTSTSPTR", "assay": "ELISA, antibody alone"}, "[10]": {"biological_target": "T10, Amino acid residues 42-61 of human TNFR2 (human)", "T10 peptide": "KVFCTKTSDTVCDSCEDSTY", "assay": "ELISA, antibody alone"}, "[11]": {"biological_target": "T11, Amino acid residues 50-69 of human TNFR2 (human)", "T11 peptide": "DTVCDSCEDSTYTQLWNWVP", "assay": "ELISA, antibody alone"}, "[12]": {"biological_target": "T12, Amino acid residues 146-165 of human TNFR2 (human)", "T12 peptide": "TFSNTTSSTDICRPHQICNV", "assay": "ELISA, coated linear peptides 1 µg/well", "description": "(§1) ELISA was also used to determine linear epitopes present on the extracellular surface of TNFR2. Linear peptides corresponding to various regions within the TNFR2 primary sequence were purchased from GenScript (Piscataway, N.J.), diluted in coating buffer and placed on Immulon 4HBX Flat Bottom Microtiter Plates (Thermo Scientific) at a concentration of 1 μg/well. Primary TNFR2 agonistic antibodies (0.1 μg/well) were incubated with substrates. Secondary antibodies against rodent IgG were used to detect the primary antibodies. Absorbance was measured using the SPECTRAMAX® 190 Absorbance Plate Reader and analyzed with SoftMax Pro 6.3 (Molecular Devices)."}, "[13]": {"biological_target": "T13, Amino acid residues 138-157 of human TNFR2 (human)", "T13 peptide": "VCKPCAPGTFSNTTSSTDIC", "assay": "ELISA, coated linear peptides 1 µg/well", "description": "as §1"}, "[14]": {"biological_target": "T14, Amino acid residues 130-149 of human TNFR2 (human)", "T14 peptide": "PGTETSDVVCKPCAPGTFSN", "assay": "ELISA, coated linear peptides 1 µg/well", "description": "as §1"}, "[15]": {"biological_target": "T15, Amino acid residues 114-133 of human TNFR2 (human)", "T15 peptide": "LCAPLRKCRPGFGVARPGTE", "assay": "ELISA, coated linear peptides 1 µg/well", "description": "as §1"}, "[16]": {"biological_target": "T5, Amino acid residues 82-101 of human …", "assay": "ELISA, coated linear peptides 1 µg/well", "description": "as §1"}, "[17]": {"biological_target": "T16, Amino acid residues 162-181 of human TNFR2 (human)", "T16 peptide": "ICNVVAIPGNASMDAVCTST", "assay": "ELISA, coated linear peptides 1 µg/well", "description": "as §1"}, "[18]": {"biological_target": "T17, Amino acid residues 154-174 of human TNFR2 (human)", "T17 peptide": "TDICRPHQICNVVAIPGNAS", "assay": "ELISA, coated linear peptides 1 µg/well", "description": "as §1"}, "[19]": {"biological_target": "T18, Amino acid residues 1-20 of human TNFR2 (human)", "T18 construct": "20-mer fragment", "T18 peptide": "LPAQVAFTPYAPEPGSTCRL", "assay": "ELISA, coated linear peptides 1 µg/well", "description": "as §1"}, "[20]": {"biological_target": "T19, Amino acid residues 122-141 of human TNFR2 (human)", "T19 peptide": "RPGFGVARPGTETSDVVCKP", "assay": "ELISA, coated linear peptides 1 µg/well", "description": "as §1"}, "[21]": {"biological_target": "T2, Amino acid residues 74-93 of human TNFR2", "assay": "ELISA on TNFR2 peptide fragment; categorical score, 0 lowest to 4 highest affinity"}, "[22]": {"biological_target": "T3, Amino acid residues 17-36 of human TNFR2", "assay": "ELISA on TNFR2 peptide fragment; categorical score, 0 lowest to 4 highest affinity"}, "[23]": {"biological_target": "T17, Amino acid residues 154-174 of human …", "assay": "ELISA on TNFR2 peptide fragment; categorical score, 0 lowest to 4 highest affinity"}, "[24]": {"biological_target": "T8, Amino acid residues 9-28 of human TNFR2", "assay": "ELISA on TNFR2 peptide fragment; categorical score, 0 lowest to 4 highest affinity"}, "[25]": {"biological_target": "T19, Amino acid residues 122-141 of human …", "assay": "ELISA on TNFR2 peptide fragment; categorical score, 0 lowest to 4 highest affinity"}}, "data": [{"binder": "B1", "values": [{"measurement": "binding result", "setting": "[1]", "value": "no binding"}, {"measurement": "Reading", "setting": "[2]", "value": 2}, {"measurement": "binding result", "setting": "[3]", "value": "no binding"}, {"measurement": "binding result", "setting": "[4]", "value": "no binding"}, {"measurement": "Reading", "setting": "[5]", "value": 2}, {"measurement": "Reading", "setting": "[6]", "value": 2}, {"measurement": "Reading", "setting": "[7]", "value": 2}, {"measurement": "binding result", "setting": "[8]", "value": "no binding"}, {"measurement": "Reading", "setting": "[9]", "value": 1.2}, {"measurement": "binding result", "setting": "[10]", "value": "no binding"}, {"measurement": "binding result", "setting": "[11]", "value": "no binding"}, {"measurement": "binding result", "setting": "[12]", "value": "no binding (tested: 0.1 µg/well)"}, {"measurement": "binding result", "setting": "[13]", "value": "no binding (tested: 0.1 µg/well)"}, {"measurement": "binding result", "setting": "[14]", "value": "no binding (tested: 0.1 µg/well)"}, {"measurement": "binding result", "setting": "[15]", "value": "no binding (tested: 0.1 µg/well)"}, {"measurement": "binding result", "setting": "[16]", "value": "no binding (tested: 0.1 µg/well)"}, {"measurement": "binding result", "setting": "[17]", "value": "no binding (tested: 0.1 µg/well)"}, {"measurement": "binding result", "setting": "[18]", "value": "no binding (tested: 0.1 µg/well)"}, {"measurement": "binding result", "setting": "[19]", "value": "no binding (tested: 0.1 µg/well)"}, {"measurement": "binding result", "setting": "[20]", "value": "no binding (tested: 0.1 µg/well)"}, {"measurement": "Affinity Score", "setting": "[21]", "value": 0}, {"measurement": "Affinity Score", "setting": "[22]", "value": 0}, {"measurement": "Affinity Score", "setting": "[23]", "value": 0}, {"measurement": "Affinity Score", "setting": "[24]", "value": 0}, {"measurement": "Affinity Score", "setting": "[25]", "value": 0}]}]}
